The target in the experiment is human tissue factor on HCT 116 human colon carcinoma cells (human, UniProt P13726 33-295). In words: cell-based or functional assay.

B1: CNTO 860 produced in YB2/0-derived host cell line C1083B (antibody, human IgG1, kappa, V domains shown)
VH: QVQLVESGGGVVQPGRSLRLSCKASGFNIKDYYMHWVRQAPGKGLEWIGLIDPENGNTIYDPKFQGRFTISADNSKNTLFLQMDSLRPEDTAVYYCARDNSYYFDYWGQGTPVTVSS
VL: DIQMTQSPSSLSASVGDRVTITCKASQDIRKYLNWYQQKPGKAPKLLIYYATSLADGVPSRFSGSGSGTDYTFTISSLQPEDIATYYCLQHGESPYTFGQGTKLEITR
modifications: Fc N-glycan about 40% fucosylated
On to B1, for which the “ADCC potency (EC50 and maximal lysis) against C463-derived CNTO 860” value was 20 to 60 倍.
